From patent publication US20200247856A1

How the values were obtained:
[1] = target: Activin A (R&D Systems, Catalog number 338-AC-050 CF) (UniProt P08476); experiment: cell-based or functional assay
[2] = target: T1, Myostatin (R&D Systems, Catalogue number 788-G8-010/CF) (UniProt O14793); experiment: cell-based or functional assay
T1 sequence (looked up): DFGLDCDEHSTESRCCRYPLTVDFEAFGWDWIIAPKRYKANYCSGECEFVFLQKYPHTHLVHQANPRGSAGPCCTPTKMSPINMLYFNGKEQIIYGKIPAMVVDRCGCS

[3] = target: FcRn receptor; experiment: FcRn binding, 'standard methods'
[4] = target: T1, Myostatin (R&D Systems, Catalogue number 788-G8-010/CF); experiment: BIAcore SPR; fusion captured on anti-human Fc; myostatin as analyte (5-0.31 nM)
[5] = target: Fc Gamma Receptor RIA (R&D Systems, Catalog #1257-FC-050) (UniProt P12314); experiment: SPR; fusion immobilised on CM5 chip; Fc gamma receptor IA as analyte (62.5-0.49 nM)
[6] = target: Activin A (R&D Systems, Catalog number 338-AC-050 CF) (UniProt P08476); experiment: BIAcore SPR; fusion captured on anti-human Fc; activin A as analyte (2.5-0.15 nM); lower end of the printed range 1-2 pM; fusion captured on anti-human Fc, activin A tested 2.5-0.15 nM
[7] = target: Activin A (R&D Systems, Catalog number 338-AC-050 CF) (UniProt P08476); experiment: BIAcore SPR; fusion captured on anti-human Fc; activin A as analyte (2.5-0.15 nM); upper end of the printed range 1-2 pM; fusion captured on anti-human Fc, activin A tested 2.5-0.15 nM

Activin A (R&D Systems, Catalog number 338-AC-050 CF), sequence (P08476 311-426): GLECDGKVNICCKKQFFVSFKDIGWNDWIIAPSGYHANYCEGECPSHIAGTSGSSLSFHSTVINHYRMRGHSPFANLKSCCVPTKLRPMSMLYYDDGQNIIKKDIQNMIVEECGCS
monoFS315K(76,81,82)E-hFcLALA (Fc fusion), sequence (chain): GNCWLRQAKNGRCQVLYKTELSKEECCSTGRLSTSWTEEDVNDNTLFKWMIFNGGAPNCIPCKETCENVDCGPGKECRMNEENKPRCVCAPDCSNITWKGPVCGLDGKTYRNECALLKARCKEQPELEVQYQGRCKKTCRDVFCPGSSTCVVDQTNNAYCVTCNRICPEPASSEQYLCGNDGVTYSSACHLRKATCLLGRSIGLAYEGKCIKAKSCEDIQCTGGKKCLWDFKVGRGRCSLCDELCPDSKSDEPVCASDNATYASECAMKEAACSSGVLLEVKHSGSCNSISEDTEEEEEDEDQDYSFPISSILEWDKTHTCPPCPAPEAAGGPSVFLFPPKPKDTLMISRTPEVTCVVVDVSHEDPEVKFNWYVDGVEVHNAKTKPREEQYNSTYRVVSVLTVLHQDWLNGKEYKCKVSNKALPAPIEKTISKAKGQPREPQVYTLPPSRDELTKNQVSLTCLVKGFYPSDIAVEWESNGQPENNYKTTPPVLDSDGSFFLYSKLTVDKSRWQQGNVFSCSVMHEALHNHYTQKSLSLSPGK
Fc Gamma Receptor RIA (R&D Systems, Catalog #1257-FC-050), sequence (P12314 16-288 limits assumed): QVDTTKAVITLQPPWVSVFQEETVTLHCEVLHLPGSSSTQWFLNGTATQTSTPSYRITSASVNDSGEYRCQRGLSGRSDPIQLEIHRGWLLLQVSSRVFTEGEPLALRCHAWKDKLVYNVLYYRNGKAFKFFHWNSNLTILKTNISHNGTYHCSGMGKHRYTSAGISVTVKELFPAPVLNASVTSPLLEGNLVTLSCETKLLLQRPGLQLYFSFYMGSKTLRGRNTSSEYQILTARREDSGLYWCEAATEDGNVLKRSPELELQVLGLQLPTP

Row | Activin A IC50 (nM), luciferase gene reporter assay (Smad3, A204 cells) [1] | Myostatin IC50 (nM), luciferase gene reporter assay (Smad3, A204 cells) [2] | Kd [3] | Kd [4] | Kd [5] | Kd [6] | Kd [7] | Substance
1 | 1 nM | 0.4 nM | – | – | – | – | – | FS315K(81,82,84)E-hFcLALA (Fc fusion)
2 | 0.7 nM | 0.4 nM | 114 nM | 0.006 to 0.01 nM | 0.14 nM | 0.001 to 0.002 nM | 0.001 to 0.002 nM | FS315WT-hFc (from UniProt P19883 30-344) (Fc fusion)
3 | – | 0.4 nM | – | – | – | – | – | FS315ΔHBS-hFcLALA (Fc fusion)
4 | – | – | 40.6 nM | < 0.004 nM | – | – | – | monoFS315K(76,81,82)E-hFcLALA (Fc fusion)
5 | – | – | 12.8 nM | 0.00289 nM | – | – | – | monoFS315wt-hFcLALA (Fc fusion)
